Assay results reported in patent US7691590B2, “Reducing myelin-mediated inhibition of axon regeneration” (Children's Medical Center Corporation, priority 2001, dated 2010).
Read-outs that look alike come from different tables or passages of the source.

How the values were obtained:
[1] = biological target: T1, Nogo receptor (NgR) (Homo sapiens, UniProt Q9BZR6); assay: Cell surface binding of AP fusion proteins to NgR-expressing cells (saturation analysis); settings: CHO cell line stably expressing NgR; read-out: binding affinity of expressed NgR for AP-OM
T1 construct: both cDNAs contained the full-length coding region of the Nogo-66 receptor (NgR); expressed in transfected cells; host or cells: CHO cells stably expressing NgR (COS-7 for the library clones)
T1 sequence (Q9BZR6 27-473): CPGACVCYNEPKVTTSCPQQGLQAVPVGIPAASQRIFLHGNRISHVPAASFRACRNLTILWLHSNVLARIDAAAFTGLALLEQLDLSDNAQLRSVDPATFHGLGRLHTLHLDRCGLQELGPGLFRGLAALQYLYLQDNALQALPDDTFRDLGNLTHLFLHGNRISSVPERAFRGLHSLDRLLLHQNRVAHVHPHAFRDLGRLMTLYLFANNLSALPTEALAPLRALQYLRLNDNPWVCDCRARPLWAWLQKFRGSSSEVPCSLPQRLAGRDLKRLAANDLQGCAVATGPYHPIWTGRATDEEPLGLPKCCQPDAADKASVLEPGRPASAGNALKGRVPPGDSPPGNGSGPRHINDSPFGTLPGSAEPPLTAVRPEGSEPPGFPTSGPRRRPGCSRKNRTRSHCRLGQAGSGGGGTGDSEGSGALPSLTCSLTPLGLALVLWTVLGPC
Procedure: To investigate the mechanisms by which OMgp inhibits neurite outgrowth, we used an expression cloning strategy^9,13,16 to identify cell surface OMgp-binding proteins. […] From pools of an adult human brain cDNA expression library, we isolated two cDNAs that encoded OMgp-binding proteins. […] We then established a CHO cell line stably expressing the NgR and determined the binding affinity of expressed NgR for AP-OM as 5 nM, similar to what had been determined for Nogo-66 (7 nM, ref. 9). […] We next performed co-precipitation experiments by incubating GST or a GST fusion protein containing the entire extracellular domain of NgR (GST-NgR) with OM-his alone or in the presence of AP or AP-66 protein. […] We next determined which domain(s) of OMgp was responsible for binding to NgR. Like NgR, OMgp is also a GPI-linked protein containing a leucine-rich repeat (LRR) domain. […]
Cell surface binding and expression cloning were performed as described previously^4,13,17. […] After extensive washing and heat inactivation, the bound proteins were detected by AP staining using nitro blue tetrazolium (NBT) and 5-bromo-4-chloro-3-indoyl phosphate (BCIP) as substrate. For saturation analysis, we disrupted cells and detected bound AP fusion proteins using r-nitrophenyl phosphate as substrate. […]

[2] = test system: growth cones of E13 chick DRG neurons; assay: Growth cone collapse assay with E13 chick DRG explants; format: cell-based; settings: E13 chick DRG
Excerpt: OMgp is a Physiological Nogo Receptor Ligand and Inhibitor of Neurite Outgrowth. To examine whether any GPI-linked proteins in CNS myelin may act as inhibitors of neurite outgrowth, we treated purified bovine white matter myelin with phosphatidylinositol-specific phospholipase C (PI-PLC) and examined the released proteins for their ability to alter growth cone morphology in a growth cone collapse assay using embryonic day 13 chick dorsal root ganglia (E13 DRG)^6,9,10. […] Since the size of this band was similar to that of a previously identified CNS myelin protein OMgp^11,12, we used antibodies specific for OMgp to detect enrichment of cleaved OMgp in the PI-PLC supernatants by Western blot. […] Next, we examined whether purified recombinant OMgp protein was able to act as an inhibitor of neurite outgrowth in two well-established in vitro assays, the growth cone collapse^6,9,13 and the neurite outgrowth assays^3-7,9.
Growth Cone Collapse and Neurite Outgrowth Assays. Chick E13 DRG and E7 retina were isolated and cultured as described previously^9,10. DRG explants cultured overnight were used for growth cone collapse assays. To assess the effects of PI-PLC treatment, cultures were pre-incubated with 2 U/ml PI-PLC for 30 min prior to treatment with individual test proteins for an additional 30 min. To express NgR in E7 retinal ganglion neurons, we infected the explants with recombinant HSV for 24 hr. After incubation with each test protein for 30 min, retinal explants were fixed in 4% paraformaldehyde and 15% sucrose. Infection of HSV-LacZ was detected by a standard b-galatosidase staining protocol^20. FLAG-NgR expression was detected by incubating paraformaldehyde-fixed cultures with M2 anti-FLAG antibody (Sigma). Bound antibody was detected by incubation with AP-conjugated […] IgG second antibody and reaction with NBT and BCIP (Vector labs). Growth cone collapse was quantified only in those positively stained for b-galatosidase or immunoreactive for the FLAG epitope.

[3] = test system: chick E7 retinal ganglion neurons (RGN) expressing human NgR; assay: Growth cone collapse in E7 retinal ganglion neurons expressing FLAG-NgR (HSV infection); format: cell-based; settings: E7 RGN infected with HSV FLAG-NgR
Excerpt: To assess whether NgR is capable of mediating OMgp-induced inhibitory activity on neurite outgrowth, we next took a gain-of-function approach to examine whether expression of NgR was able to confer OMgp-responsiveness to otherwise insensitive neurons. It has been shown previously that chick E7 retinal ganglion neurons (RGN) are insensitive to Nogo-66, but that introduction of exogenous NgR in these neurons rendered their growth cones to be responsive to Nogo-66^9. Using the same strategy, we made a recombinant herpes simplex virus (HSV) that drives expression of a FLAG-tagged full-length human NgR (FLAG-NgR) in infected neurons. Upon infection, 80% of the E7 RGNs expressed the FLAG-NgR protein as assessed by immunocytochemistry with an anti-FLAG antibody. […] Furthermore, the growth cones of NgR-expressing axons also become collapsible by OMgp.
Growth Cone Collapse and Neurite Outgrowth Assays. […] Infection of HSV-LacZ was detected by a standard b-galatosidase staining protocol^20. FLAG-NgR expression was detected by incubating paraformaldehyde-fixed cultures with M2 anti-FLAG antibody (Sigma). Bound antibody was detected by incubation with AP-conjugated […] IgG second antibody and reaction with NBT and BCIP (Vector labs). Growth cone collapse was quantified only in those positively stained for b-galatosidase or immunoreactive for the FLAG epitope.

[4] = biological target: T1, Nogo receptor (NgR); settings: read-out: binding affinity of NgR for Nogo-66; cited from earlier work

| Molecule | Kd [1] [nM] | growth cone collapsing activity [2] | growth cone collapse response in NgR-expressing neurons [3] | Kd [4] [nM] | growth cone collapsing activity after PI-PLC treatment of the neurons ([2]; PI-PLC pre-incubation) |
| --- | --- | --- | --- | --- | --- |
| AP-OM: alkaline phosphatase fusion protein containing mouse OMgp, polyhistidine and myc tagged (protein, left off: large carriers; small tags and cut ends, alkaline phosphatase fusion protein containing mouse OMgp, polyhistidine and myc tagged) ICPLQCTCTERHRHVDCSGRNLTTLPPGLQENIIHLNLSYNHFTDLHNQLTPYTNLRTLDISNNRLESLPAQLPRSLWNMSAANNNIKLLDKSDTAYQWNLKYLDVSKNMLEKVVLIKNTLRSLEVLNLSSNKLWTVPTNMPSKLHIVDLSNNSLTQILPGTLINLTNLTHLYLHNNKFTFIPEQSFDQLLQLQEITLHNNRWSCDHKQNITYLLKWVMETKAHVIGTPCSKQVSSLKEQSMYPTPPGFTSSLFTMSEMQTVDTINSLSMVTQPKVTKTPKQYRGKETTFGVTLSKDTTFSSTDRAVVAYPEDTPTEMTNSHEAAAATLTIHLQDGMSSNASLTSATKSPPSPVTLSIARGMPNNFSEMPRQSTTLNLRREETTANGNTRPPS | 5 | induce collapse |  |  |  |
| Nogo-66: 66 amino acid extracellular domain of Nogo-A (protein, left off: large carriers, 66 amino acid extracellular domain of Nogo-A) RIYKGVIQAIQKSDEGHPFRAYLESEVAISEELVQKYSNSALGHVNCTIKELRRLFLVDDLVDSLK |  |  | conferred a growth cone collapse response | 7 | insensitive |
